Data: patent US20210179710A1, “COMBINATION IMMUNOTHERAPY AND CHEMOTHERAPY FOR THE TREATMENT OF A HEMATOLOGICAL MALIGNANCY” (Actinium Pharmaceuticals, Inc., priority 2018, published 2021)
Read-outs that look alike come from different tables or passages of the source.

Assays:
CD33 [1] = target: T1, CD33 (Homo sapiens, UniProt P20138); conditions: human peripheral blood mononuclear cells as effectors, cited from earlier work
CD33 [2] = target: T1, CD33; conditions: higher than M195; cited from earlier work
[3] = system: relapsed or refractory AML and CML; conditions: cited from earlier work
HL60 (leukemia cells) = experiment: Cytotoxicity against HL60 cell suspensions; type: cell-based
[4] = system: peripheral blood and bone marrow cells; experiment: Reactivity with peripheral blood and bone marrow cells from frozen tissues; type: binding; conditions: nonhuman primate and human frozen tissues
relapsed/refractory AML = experiment: Dose escalation (MTD) in patients with relapsed/refractory AML; type: in vivo, human
Description: A maximum tolerated dose (MTD) of a single injection of the radiolabeled lintuzumab was determined to be 3 uCi/kg patient weight. As a split dose (e.g., 2 equal doses administered 4-7 days apart), the MTD was determined to be 2 uCi/kg per dose, or 4 uCi/kg total. […] Determination of MTD was based on the severity of the adverse effects observed at each dose level. Anti-leukemic effects included elimination of peripheral blood blasts in 13 of 19 evaluable patients. Twelve of 18 patients who were evaluable at 4 weeks following treatment had reductions in bone marrow blasts, including nine with reductions ≥50%. Three patients treated with 1 uCi/kg, 3 uCi/kg and 4 uCi/kg respectively had ≤5% blasts after therapy.

AML [5] = experiment: Phase 1 clinical trial, fractionated doses combined with low dose Ara-C (LDAC); type: in vivo, human; conditions: fractionated doses on days 1 and 8 combined with LDAC
Text: (§1) Preliminary data are available on 9 with median age 75 years (range, 65-82) and PS median 2 (0-1 in 2 patients, […], & 3 in 2 patients). Six (67%) had prior treatment for AHDs (5 MDS, 1 atypical CML). At baseline, 5 patients had ANC≥500/μL, only 2 had ANC≥1000/μL, and only 1 had platelets >50,000/μL.

AML [6] = experiment: Phase 2 portion, monotherapy without LDAC in AML patients unfit for cytotoxic chemotherapy; type: in vivo, human
Text: as §1
The 30-day mortality rate was 33% (disease progression, acute on chronic respiratory failure, and post-traumatic intracranial hemorrhage after a fall).
Objective responses were documented in 5 of the 9 patients (56%): 2 Complete Remissions with incomplete platelet count recovery (CRp) and 3 Complete Remissions with incomplete hematologic recovery (CRi). Two patients had resistant disease.
The two patients with CRp had neutrophil recovery at Days 60 and 36. Two of the patients with CRi had not reached ANC≥500/μL when they expired from infection on days 65 and 56, and the third is at day 66+ without ANC recovery. Since patients with antecedent hematologic disorders (AHDs) may not have capacity to recover to normal neutrophil production, patients without AHDs may be more informative. Of the 3 patients without AHDs, 1 had ANC recovery at Day 36, 1 had death from infection at Day 56 without ANC recovery, and 1 is pending ANC recovery at Day 66+. […]

[7] = four clinical trials, native HuM195 alone
[8] = 2 equal doses administered 4-7 days apart
[9] = 2 μCi/kg/fraction monotherapy, preliminary

T1 sequence (P20138 18-364): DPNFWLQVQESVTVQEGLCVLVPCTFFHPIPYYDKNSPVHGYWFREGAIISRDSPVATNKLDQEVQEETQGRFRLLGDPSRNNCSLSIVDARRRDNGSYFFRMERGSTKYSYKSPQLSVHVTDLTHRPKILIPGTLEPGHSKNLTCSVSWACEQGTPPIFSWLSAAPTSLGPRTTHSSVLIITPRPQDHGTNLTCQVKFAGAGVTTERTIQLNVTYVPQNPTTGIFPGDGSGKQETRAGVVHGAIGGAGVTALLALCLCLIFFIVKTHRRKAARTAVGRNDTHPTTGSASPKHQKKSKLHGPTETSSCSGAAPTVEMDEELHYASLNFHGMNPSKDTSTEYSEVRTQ

HuM195: recombinant humanized anti-CD33 monoclonal antibody
antibody-dependent cell-mediated cytotoxicity (ADCC) (CD33 [1]): induced antibody-dependent cell-mediated cytotoxicity
antibody-dependent cell-mediated cytotoxicity (ADCC) (CD33 [1]; listed as lintuzumab): demonstrated antibody-dependent cell-mediated cytotoxicity
binding avidity relative to M195 (CD33 [2]): greater than 8 fold
single agent activity in AML ([3]; even at supra-saturating doses that fully blocked CD33 binding sites throughout a 4-week period): very modest activity
human anti-human antibody responses [3, 7]: not seen
most common toxicities [3, 7]: Fever, chills, and nausea
reduction in marrow blast cells [3, 7]: seen in some patients

lintuzumab-Ac^225: Lintuzumab conjugated with Actinium-225 (Ac^225)
dose at which 50% of the cells were killed (LD50) (HL60 (leukemia cells)): 8 μCi per mL of cell suspension
reactivity with peripheral blood and bone marrow cells (specificity) [4]: reactivity with mononuclear cells only
elimination of peripheral blood blasts (relapsed/refractory AML; 0.5 uCi/kg to 4 uCi/kg): 13 of 19
MTD, split dose, per dose (relapsed/refractory AML; [8]): 2 uCi/kg per dose
MTD, split dose, total (relapsed/refractory AML; [8]): 4 uCi/kg total
patients with reductions in bone marrow blasts ≥50% (relapsed/refractory AML; of 18 evaluable at 4 weeks): nine
maximum tolerated dose (MTD), single injection (relapsed/refractory AML; single injection): 3 uCi/kg patient weight
patients with ≤5% blasts after therapy (relapsed/refractory AML; treated with 1 uCi/kg, 3 uCi/kg and 4 uCi/kg respectively): Three
dose at which treatment induced remissions (AML [5]): above 0.5 uCi/kg/fraction
30-day mortality rate (AML [6]; 2 μCi/kg/fraction): 33%
Grade >3 non-hematologic toxicities reported in ≥1 pt (AML [6]; 2 μCi/kg/fraction): pneumonia and cellulitis
platelet counts >20,000/μL without transfusions (AML [6]; 2 μCi/kg/fraction): No patients reached platelet counts >20,000/μL without transfusions
veno-occlusive disease (AML [6]; 2 μCi/kg/fraction): did not occur
objective response rate (AML [6]; [9]): 56%
objective responses (patients) (AML [6]; [9]): 5 of the 9
myelosuppression (AML [6]; 2 μCi/kg/fraction, days 1 and 8, preliminary data on 9 patients): seen in all evaluable patients
grade 4 thrombocytopenia with marrow aplasia for >6 weeks following therapy (AML [6]; 2 μCi/kg/fraction, preliminary data on 9 patients): 3 patients
median time to neutrophil recovery (ANC≥500/μL) (AML [6]; from the first dose, range 20-60): 36 days
Complete Remissions with incomplete hematologic recovery (CRi) (AML [6]; of 9 patients): 3
Complete Remissions with incomplete platelet count recovery (CRp) (AML [6]; of 9 patients): 2
patients with resistant disease (AML [6]; of 9 patients): Two
